# Literature values, collected in paper PMC6997106.
# pKd: −log10 of the molar value.
# Target: RAGE V-domain V-domain (Homo sapiens) (UniProt Q15109)
# Assay: SPR
# RAGE V-domain V-domain (Homo sapiens), sequence (Q15109 23-116): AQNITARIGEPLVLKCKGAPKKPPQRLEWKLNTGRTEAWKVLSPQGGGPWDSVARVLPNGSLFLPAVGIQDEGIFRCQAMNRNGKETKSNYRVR
# S100B, sequence (P04271 2-92): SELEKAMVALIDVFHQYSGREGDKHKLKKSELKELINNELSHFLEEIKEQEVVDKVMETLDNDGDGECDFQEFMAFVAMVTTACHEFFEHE
substance,measurement,value
S100B (from UniProt P04271),pKd,6.30
